Data as given in patent US20260226176A1 (THERANOVIR, published 2026).

Key:
[1] = target: T1, recombinant human NRP-1 (3870-N1-025, Bio-Techne) (human, UniProt O14786 22-856); assay: ELISA, antibody 10 µg/ml, 1 µg immobilised human NRP-1
T1 construct: extracellular domain; bought protein; also called human recombinant NRP-1

[2] = target: T2, native human NRP-1 on the cell surface (human, UniProt O14786 22-923); assay: flow cytometry, MDA-MB-231 cells, 10 ug/ml, -heparinase
T2 construct: whole, on cells; endogenous protein; isoform and glycosaminoglycan state on the cells not defined; also called native NRP-1 on MDA-MB-231 cells; native form of NRP-1 protein on the CTCs cell surface

[3] = target: Core histone macro-H2A.1 (human) (UniProt O75367); assay: co-IP from A549 WT lysate, LC-MS/MS, peak area against isotype IP
[4] = target: Poly [ADP-ribose] polymerase 1 (human) (UniProt P09874); assay: as above
[5] = target: X-ray repair cross-complementing protein 5 (human) (UniProt P13010); assay: as above
[6] = target: Replication protein A 70 kDa DNA-binding subunit (human) (UniProt P27694); assay: as above
[7] = target: FACT complex subunit SPT16 (human) (UniProt Q9Y5B9); assay: as above
[8] = target: DNA-dependent protein kinase catalytic subunit (DNA-PK) (human) (UniProt P78527); assay: as above
[9] = target: X-ray repair cross-complementing protein 6 (human) (UniProt P12956); assay: as above
Histone H2A.Z (human) = Histone H2A.Z (human) (UniProt P0C0S5); assay: as above
[10] = target: DNA topoisomerase 2-beta (human) (UniProt Q02880); assay: as above
[11] = target: Sister chromatid cohesion protein PDS5 homolog B (human) (UniProt Q9NTI5); assay: as above
[12] = target: Werner syndrome ATP-dependent helicase (human) (UniProt Q14191); assay: as above
[13] = target: DNA-directed RNA polymerase I subunit RPA1 (human) (UniProt O95602); assay: as above
[14] = target: DNA topoisomerase 2-alpha (human) (UniProt P11388); assay: as above
[15] = target: DNA mismatch repair protein Msh2 (human) (UniProt P43246); assay: as above
DNA ligase 3 (human) = DNA ligase 3 (human) (UniProt P49916); assay: as above
Histone H3.1 (human) = Histone H3.1 (human) (UniProt P68431); assay: as above
[16] = target: Poly [ADP-ribose] polymerase 2 (human) (UniProt Q9UGN5); assay: as above
[17] = target: T2, native human NRP-1 on the cell surface; assay: flow cytometry, MDA-MB-231 cells, 10 ug/ml, +heparinase

B1: variant 4 of a-NRP1_LEP n° 1 (antibody, V domains shown)
VH: EVQLVESGGGLVQPGGSLRLSCAASGFTFSSFGMHWVRQAPGKGLEWVAYISSGSSTIHYADSVKGRFTISRDNAKNSLYLQMNSLRAEDTAMYYCARRHYGSSRYWYFDVWGQGTTVTVSS
VL: EIVLTQSPATLSLSPGERATLSCRASQSVKSYLAWYQQKPGQAPRLLIYYASSRATGIPARFSGSGSGTDFTLTISSLEPEDFAVYYCQQYSESPYTFGQGTKLEIK
notes: humanized variant of 21B10; isotype control hIgG4; also called variant 4 a-NRP1_LEP; variant n°4 a-NRP1_LEP
Absorbance [1]: 0.953
percentage of binding [2]: 12.4%
Ratio Area V4/IgG4 [3]: 1130
Ratio Area V4/IgG4 [4]: 546
Ratio Area V4/IgG4 [5]: 2.3
Ratio Area V4/IgG4 [6]: 2
Ratio Area V4/IgG4 [7]: 6030
Ratio Area V4/IgG4 [8]: 6.06
Ratio Area V4/IgG4 [9]: 1.9
Ratio Area V4/IgG4 (Histone H2A.Z (human)): 22
Ratio Area V4/IgG4 [10]: 369
Ratio Area V4/IgG4 [11]: 358
Ratio Area V4/IgG4 [12]: 540
Ratio Area V4/IgG4 [13]: 3210
Ratio Area V4/IgG4 [14]: 1440
Ratio Area V4/IgG4 [15]: 1
Ratio Area V4/IgG4 (DNA ligase 3 (human)): 78.8
Ratio Area V4/IgG4 (Histone H3.1 (human)): 82.5
Ratio Area V4/IgG4 [16]: 259
percentage of binding [17]: 10.1%
